{
  "source": "patent US20220073922",
  "key": {"[1]": {"target": "T1, Angiopoietin-2 (Ang2) (Homo sapiens) (UniProt O15123)", "T1 sequence": "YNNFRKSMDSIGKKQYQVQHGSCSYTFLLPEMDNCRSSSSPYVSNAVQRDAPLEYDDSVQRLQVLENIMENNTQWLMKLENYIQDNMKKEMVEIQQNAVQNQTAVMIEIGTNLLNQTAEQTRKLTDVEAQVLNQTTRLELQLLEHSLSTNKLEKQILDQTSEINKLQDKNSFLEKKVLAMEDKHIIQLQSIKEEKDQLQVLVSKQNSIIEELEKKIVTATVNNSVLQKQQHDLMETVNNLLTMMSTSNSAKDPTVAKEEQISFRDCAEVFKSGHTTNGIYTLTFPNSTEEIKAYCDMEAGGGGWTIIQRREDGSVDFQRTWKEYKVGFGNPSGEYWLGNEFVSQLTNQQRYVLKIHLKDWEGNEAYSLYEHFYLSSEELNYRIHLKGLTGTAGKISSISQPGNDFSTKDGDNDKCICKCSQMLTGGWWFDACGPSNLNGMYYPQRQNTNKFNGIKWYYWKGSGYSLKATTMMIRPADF", "experiment": "flow", "details": "2'-F all nucleotides"}, "[2]": {"target": "T2, VEGF-121 (VEGFA isoform 121) (Homo sapiens) (UniProt P15692)", "T2 sequence": "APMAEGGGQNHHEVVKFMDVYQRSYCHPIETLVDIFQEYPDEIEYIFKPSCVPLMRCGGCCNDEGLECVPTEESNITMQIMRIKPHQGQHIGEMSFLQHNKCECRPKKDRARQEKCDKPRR", "experiment": "flow", "details": "2'-F all nucleotides"}, "[3]": {"tested_on": "T3, VEGF (isoform not given) (Homo sapiens), P15692-9", "T3 sequence": "T2 sequence", "experiment": "competition", "details": "2'-F all positions; blocks VEGF-VEGFR2; isoform not stated"}, "[4]": {"details": "1 hexaethylene glycol linker between aptamers [2'-F at all nucleotides 1-86, 1 hexaethylene glycol linker (H) between 38 and 39 left out]"}, "[5]": {"details": "2 hexaethylene glycol linkers between aptamers [2'-F at all nucleotides 1-86, 2 hexaethylene glycol linkers (HH) between 38 and 39 left out]"}, "[6]": {"details": "3 hexaethylene glycol linkers between aptamers [2'-F at all nucleotides 1-86, 3 hexaethylene glycol linkers (HHH) between 38 and 39 left out]"}, "[7]": {"details": "4 hexaethylene glycol linkers between aptamers [2'-F at all nucleotides 1-86, 4 hexaethylene glycol linkers (HHHH) between 38 and 39 left out]"}, "[8]": {"details": "5 hexaethylene glycol linkers between aptamers [2'-F at all nucleotides 1-86, 5 hexaethylene glycol linkers (HHHHH) between 38 and 39 left out]"}, "[9]": {"details": "6 hexaethylene glycol linkers between aptamers [2'-F at all nucleotides 1-86, 6 hexaethylene glycol linkers (HHHHHH) between 38 and 39 left out]"}},
  "data": [
    {"sequence": "CGCAUAGAUAAGCCAACAAACAUUCUCUGUUAGUAUUUUCUGCG [AMS0525.8]", "values": [
      {"measurement": "Kd", "setting": "[1]; one internal hexaethylene glycol linker (H) [2'-F at 1-44, hexaethylene glycol linker H (left out) between C21 and A22], PBSMCT, 37 C", "value": 0.085, "unit": "nM"}
    ]},
    {"sequence": "CGCAUAGAUAAGCCAACAAAUUCUCUGUUAGUAUUUUCUGCG [AMS0525.7]", "values": [
      {"measurement": "Kd", "setting": "[1]; one internal hexaethylene glycol linker (H) [2'-F at 1-42, hexaethylene glycol linker H (left out) between A20 and U21], PBSMCT, 37 C", "value": 0.093, "unit": "nM"}
    ]},
    {"sequence": "CGCUAGAUGGCUAACACUAUUGUGGAGAUGCACUAGCGCGCAUAGAUAAGCCAACAAACGUACAUUCUCUGUUAGUAUUUUCUGCG [AMSB103.1]", "values": [
      {"measurement": "Kd", "setting": "[2]; [4]", "value": 0.041, "unit": "nM"},
      {"measurement": "Kd", "setting": "[1]; [4]", "value": 0.026, "unit": "nM"}
    ]},
    {"sequence": "CGCUAGAUGGCUAACACUAUUGUGGAGAUGCACUAGCGCGCAUAGAUAAGCCAACAAACGUACAUUCUCUGUUAGUAUUUUCUGCG [AMSB103.2]", "values": [
      {"measurement": "Kd", "setting": "[2]; [5]", "value": 0.038, "unit": "nM"},
      {"measurement": "Kd", "setting": "[1]; [5]", "value": 0.034, "unit": "nM"}
    ]},
    {"sequence": "CGCUAGAUGGCUAACACUAUUGUGGAGAUGCACUAGCGCGCAUAGAUAAGCCAACAAACGUACAUUCUCUGUUAGUAUUUUCUGCG [AMSB103.3]", "values": [
      {"measurement": "Kd", "setting": "[2]; [6]", "value": 0.036, "unit": "nM"},
      {"measurement": "Kd", "setting": "[1]; [6]", "value": 0.031, "unit": "nM"}
    ]},
    {"sequence": "CGCUAGAUGGCUAACACUAUUGUGGAGAUGCACUAGCGCGCAUAGAUAAGCCAACAAACGUACAUUCUCUGUUAGUAUUUUCUGCG [AMSB103.4]", "values": [
      {"measurement": "Kd", "setting": "[2]; [7]", "value": 0.041, "unit": "nM"},
      {"measurement": "Kd", "setting": "[1]; [7]", "value": 0.032, "unit": "nM"}
    ]},
    {"sequence": "CGCUAGAUGGCUAACACUAUUGUGGAGAUGCACUAGCGCGCAUAGAUAAGCCAACAAACGUACAUUCUCUGUUAGUAUUUUCUGCG [AMSB103.5]", "values": [
      {"measurement": "Kd", "setting": "[2]; [8]", "value": 0.038, "unit": "nM"},
      {"measurement": "Kd", "setting": "[1]; [8]", "value": 0.027, "unit": "nM"}
    ]},
    {"sequence": "CGCUAGAUGGCUAACACUAUUGUGGAGAUGCACUAGCGCGCAUAGAUAAGCCAACAAACGUACAUUCUCUGUUAGUAUUUUCUGCG [AMSB103.6]", "values": [
      {"measurement": "Kd", "setting": "[2]; [9]", "value": 0.039, "unit": "nM"},
      {"measurement": "Kd", "setting": "[1]; [9]", "value": 0.034, "unit": "nM"}
    ]},
    {"sequence": "CGCUAGAUGGCUAACACUAUUGUGGAGAUGCACUAGCGCGCAUAGAUAAGCCAACAAACGUACAUUCUCUGUUAGUAUUUUCUGCG [AMSB103]", "values": [
      {"measurement": "IC50", "setting": "[3]", "value": "< 0.1", "unit": "nM"}
    ]}
  ]
}
